# In patent US20260049138A1 (Chugai, published 2026):
# B1: GLS3000 S52P one-arm antibody (antibody, human IgG1, kappa, L234A L235A, N297A, name in Kabat numbering)
# heavy: QVQLVESGGGVVQPGRSLRLSCAASGFTFSNAWMHWVRQAPGKGLEWVAQIKAKSNNYATYYAESVKGRFTISRDDSKNSLYLQMNSLKTEDTAVYYCRYVHYGAYYGVDAWGQGTTVTVSSASTKGPSVFPLAPSSKSTSGGTAALGCLVKDYFPEPVTVSWNSGALTSGVHTFPAVLQSSGLYSLSSVVTVPSSSLGTQTYICNVNHKPSNTKVDKKVEPKSCDKTHTCPPCPAPEAAGGPSVFLFPPKPKDTLMISRTPEVTCVVVDVSHEDPEVKFNWYVDGVEVHNAKTKPREEQYASTYRVVSVLTVLHQDWLNGKEYKCKVSNKALPAPIEKTISKAKGQPREPQVYTLPPSRCELTKNQVSLSCAVKGFYPSDIAVEWESNGQPENNYKTTPPVLDSDGSFFLVSKLTVDKSRWQQGNVFSCSVMHEALHNHYTQKSLSLSPDYKDDDDK
# chain: EPKSSDKTHTCPPCPAPELLGGPSVFLFPPKPKDTLMISRTPEVTCVVVDVSHEDPEVKFNWYVDGVEVHNAKTKPREEQYNSTYRVVSVLTVLHQDWLNGKEYKCKVSNKALPAPIEKTISKAKGQPREPQVCTLPPSRDELTKNQVSLWCLVKGFYPSDIAVEWESNGQPENNYKTTPPVLDSDGSFFLYSKLTVDKSRWQQGNVFSCSVMHEALHNRYTQKSLSLSP
# light: DIVMTQSPLSLPVTPGEPASISCRSSQSLVHSNRNTYLHWYQQKPGQAPRLLIYKVPNRFSGVPDRFSGSGSGTDFTLKISRVEAEDVGVYYCGQGTQVPYTFGQGTKLEIKRTVAAPSVFIFPPSDEQLKSGTASVVCLLNNFYPREAKVQWKVDNALQSGNSQESVTEQDSKDSTYSLSSTLTLSKADYEKHKVYACEVTHQGLSSPVTKSFNRGEC
# B2: GLS3000 S52Y one-arm antibody (antibody, human IgG1, kappa, L234A L235A, N297A, name in Kabat numbering)
# heavy: QVQLVESGGGVVQPGRSLRLSCAASGFTFSNAWMHWVRQAPGKGLEWVAQIKAKSNNYATYYAESVKGRFTISRDDSKNSLYLQMNSLKTEDTAVYYCRYVHYGAYYGVDAWGQGTTVTVSSASTKGPSVFPLAPSSKSTSGGTAALGCLVKDYFPEPVTVSWNSGALTSGVHTFPAVLQSSGLYSLSSVVTVPSSSLGTQTYICNVNHKPSNTKVDKKVEPKSCDKTHTCPPCPAPEAAGGPSVFLFPPKPKDTLMISRTPEVTCVVVDVSHEDPEVKFNWYVDGVEVHNAKTKPREEQYASTYRVVSVLTVLHQDWLNGKEYKCKVSNKALPAPIEKTISKAKGQPREPQVYTLPPSRCELTKNQVSLSCAVKGFYPSDIAVEWESNGQPENNYKTTPPVLDSDGSFFLVSKLTVDKSRWQQGNVFSCSVMHEALHNHYTQKSLSLSPDYKDDDDK
# chain: EPKSSDKTHTCPPCPAPELLGGPSVFLFPPKPKDTLMISRTPEVTCVVVDVSHEDPEVKFNWYVDGVEVHNAKTKPREEQYNSTYRVVSVLTVLHQDWLNGKEYKCKVSNKALPAPIEKTISKAKGQPREPQVCTLPPSRDELTKNQVSLWCLVKGFYPSDIAVEWESNGQPENNYKTTPPVLDSDGSFFLYSKLTVDKSRWQQGNVFSCSVMHEALHNRYTQKSLSLSP
# light: DIVMTQSPLSLPVTPGEPASISCRSSQSLVHSNRNTYLHWYQQKPGQAPRLLIYKVYNRFSGVPDRFSGSGSGTDFTLKISRVEAEDVGVYYCGQGTQVPYTFGQGTKLEIKRTVAAPSVFIFPPSDEQLKSGTASVVCLLNNFYPREAKVQWKVDNALQSGNSQESVTEQDSKDSTYSLSSTLTLSKADYEKHKVYACEVTHQGLSSPVTKSFNRGEC
# B3: GLS3000 S52Q one-arm antibody (antibody, human IgG1, kappa, L234A L235A, N297A, name in Kabat numbering)
# heavy: QVQLVESGGGVVQPGRSLRLSCAASGFTFSNAWMHWVRQAPGKGLEWVAQIKAKSNNYATYYAESVKGRFTISRDDSKNSLYLQMNSLKTEDTAVYYCRYVHYGAYYGVDAWGQGTTVTVSSASTKGPSVFPLAPSSKSTSGGTAALGCLVKDYFPEPVTVSWNSGALTSGVHTFPAVLQSSGLYSLSSVVTVPSSSLGTQTYICNVNHKPSNTKVDKKVEPKSCDKTHTCPPCPAPEAAGGPSVFLFPPKPKDTLMISRTPEVTCVVVDVSHEDPEVKFNWYVDGVEVHNAKTKPREEQYASTYRVVSVLTVLHQDWLNGKEYKCKVSNKALPAPIEKTISKAKGQPREPQVYTLPPSRCELTKNQVSLSCAVKGFYPSDIAVEWESNGQPENNYKTTPPVLDSDGSFFLVSKLTVDKSRWQQGNVFSCSVMHEALHNHYTQKSLSLSPDYKDDDDK
# chain: EPKSSDKTHTCPPCPAPELLGGPSVFLFPPKPKDTLMISRTPEVTCVVVDVSHEDPEVKFNWYVDGVEVHNAKTKPREEQYNSTYRVVSVLTVLHQDWLNGKEYKCKVSNKALPAPIEKTISKAKGQPREPQVCTLPPSRDELTKNQVSLWCLVKGFYPSDIAVEWESNGQPENNYKTTPPVLDSDGSFFLYSKLTVDKSRWQQGNVFSCSVMHEALHNRYTQKSLSLSP
# light: DIVMTQSPLSLPVTPGEPASISCRSSQSLVHSNRNTYLHWYQQKPGQAPRLLIYKVQNRFSGVPDRFSGSGSGTDFTLKISRVEAEDVGVYYCGQGTQVPYTFGQGTKLEIKRTVAAPSVFIFPPSDEQLKSGTASVVCLLNNFYPREAKVQWKVDNALQSGNSQESVTEQDSKDSTYSLSSTLTLSKADYEKHKVYACEVTHQGLSSPVTKSFNRGEC
# B4: GLS3000 S56A one-arm antibody (antibody, human IgG1, kappa, L234A L235A, N297A, name in Kabat numbering)
# heavy: QVQLVESGGGVVQPGRSLRLSCAASGFTFSNAWMHWVRQAPGKGLEWVAQIKAKSNNYATYYAESVKGRFTISRDDSKNSLYLQMNSLKTEDTAVYYCRYVHYGAYYGVDAWGQGTTVTVSSASTKGPSVFPLAPSSKSTSGGTAALGCLVKDYFPEPVTVSWNSGALTSGVHTFPAVLQSSGLYSLSSVVTVPSSSLGTQTYICNVNHKPSNTKVDKKVEPKSCDKTHTCPPCPAPEAAGGPSVFLFPPKPKDTLMISRTPEVTCVVVDVSHEDPEVKFNWYVDGVEVHNAKTKPREEQYASTYRVVSVLTVLHQDWLNGKEYKCKVSNKALPAPIEKTISKAKGQPREPQVYTLPPSRCELTKNQVSLSCAVKGFYPSDIAVEWESNGQPENNYKTTPPVLDSDGSFFLVSKLTVDKSRWQQGNVFSCSVMHEALHNHYTQKSLSLSPDYKDDDDK
# chain: EPKSSDKTHTCPPCPAPELLGGPSVFLFPPKPKDTLMISRTPEVTCVVVDVSHEDPEVKFNWYVDGVEVHNAKTKPREEQYNSTYRVVSVLTVLHQDWLNGKEYKCKVSNKALPAPIEKTISKAKGQPREPQVCTLPPSRDELTKNQVSLWCLVKGFYPSDIAVEWESNGQPENNYKTTPPVLDSDGSFFLYSKLTVDKSRWQQGNVFSCSVMHEALHNRYTQKSLSLSP
# light: DIVMTQSPLSLPVTPGEPASISCRSSQSLVHSNRNTYLHWYQQKPGQAPRLLIYKVSNRFAGVPDRFSGSGSGTDFTLKISRVEAEDVGVYYCGQGTQVPYTFGQGTKLEIKRTVAAPSVFIFPPSDEQLKSGTASVVCLLNNFYPREAKVQWKVDNALQSGNSQESVTEQDSKDSTYSLSSTLTLSKADYEKHKVYACEVTHQGLSSPVTKSFNRGEC
# B5: GLS3000 S56E one-arm antibody (antibody, human IgG1, kappa, L234A L235A, N297A, name in Kabat numbering)
# heavy: QVQLVESGGGVVQPGRSLRLSCAASGFTFSNAWMHWVRQAPGKGLEWVAQIKAKSNNYATYYAESVKGRFTISRDDSKNSLYLQMNSLKTEDTAVYYCRYVHYGAYYGVDAWGQGTTVTVSSASTKGPSVFPLAPSSKSTSGGTAALGCLVKDYFPEPVTVSWNSGALTSGVHTFPAVLQSSGLYSLSSVVTVPSSSLGTQTYICNVNHKPSNTKVDKKVEPKSCDKTHTCPPCPAPEAAGGPSVFLFPPKPKDTLMISRTPEVTCVVVDVSHEDPEVKFNWYVDGVEVHNAKTKPREEQYASTYRVVSVLTVLHQDWLNGKEYKCKVSNKALPAPIEKTISKAKGQPREPQVYTLPPSRCELTKNQVSLSCAVKGFYPSDIAVEWESNGQPENNYKTTPPVLDSDGSFFLVSKLTVDKSRWQQGNVFSCSVMHEALHNHYTQKSLSLSPDYKDDDDK
# chain: EPKSSDKTHTCPPCPAPELLGGPSVFLFPPKPKDTLMISRTPEVTCVVVDVSHEDPEVKFNWYVDGVEVHNAKTKPREEQYNSTYRVVSVLTVLHQDWLNGKEYKCKVSNKALPAPIEKTISKAKGQPREPQVCTLPPSRDELTKNQVSLWCLVKGFYPSDIAVEWESNGQPENNYKTTPPVLDSDGSFFLYSKLTVDKSRWQQGNVFSCSVMHEALHNRYTQKSLSLSP
# light: DIVMTQSPLSLPVTPGEPASISCRSSQSLVHSNRNTYLHWYQQKPGQAPRLLIYKVSNRFEGVPDRFSGSGSGTDFTLKISRVEAEDVGVYYCGQGTQVPYTFGQGTKLEIKRTVAAPSVFIFPPSDEQLKSGTASVVCLLNNFYPREAKVQWKVDNALQSGNSQESVTEQDSKDSTYSLSSTLTLSKADYEKHKVYACEVTHQGLSSPVTKSFNRGEC
# B6: GLS3000 S56D one-arm antibody (antibody, human IgG1, kappa, L234A L235A, N297A, name in Kabat numbering)
# heavy: QVQLVESGGGVVQPGRSLRLSCAASGFTFSNAWMHWVRQAPGKGLEWVAQIKAKSNNYATYYAESVKGRFTISRDDSKNSLYLQMNSLKTEDTAVYYCRYVHYGAYYGVDAWGQGTTVTVSSASTKGPSVFPLAPSSKSTSGGTAALGCLVKDYFPEPVTVSWNSGALTSGVHTFPAVLQSSGLYSLSSVVTVPSSSLGTQTYICNVNHKPSNTKVDKKVEPKSCDKTHTCPPCPAPEAAGGPSVFLFPPKPKDTLMISRTPEVTCVVVDVSHEDPEVKFNWYVDGVEVHNAKTKPREEQYASTYRVVSVLTVLHQDWLNGKEYKCKVSNKALPAPIEKTISKAKGQPREPQVYTLPPSRCELTKNQVSLSCAVKGFYPSDIAVEWESNGQPENNYKTTPPVLDSDGSFFLVSKLTVDKSRWQQGNVFSCSVMHEALHNHYTQKSLSLSPDYKDDDDK
# chain: EPKSSDKTHTCPPCPAPELLGGPSVFLFPPKPKDTLMISRTPEVTCVVVDVSHEDPEVKFNWYVDGVEVHNAKTKPREEQYNSTYRVVSVLTVLHQDWLNGKEYKCKVSNKALPAPIEKTISKAKGQPREPQVCTLPPSRDELTKNQVSLWCLVKGFYPSDIAVEWESNGQPENNYKTTPPVLDSDGSFFLYSKLTVDKSRWQQGNVFSCSVMHEALHNRYTQKSLSLSP
# light: DIVMTQSPLSLPVTPGEPASISCRSSQSLVHSNRNTYLHWYQQKPGQAPRLLIYKVSNRFDGVPDRFSGSGSGTDFTLKISRVEAEDVGVYYCGQGTQVPYTFGQGTKLEIKRTVAAPSVFIFPPSDEQLKSGTASVVCLLNNFYPREAKVQWKVDNALQSGNSQESVTEQDSKDSTYSLSSTLTLSKADYEKHKVYACEVTHQGLSSPVTKSFNRGEC
# Molecular target: T1, CD3ε homodimer protein (human, UniProt P07766 23-126, limits assumed)
# T1 construct: also called CD3 (CD3ε)
# Experiment: SPR Biacore T200, CD3ε homodimer on chip;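 note: Light-chain single-residue variant antibodies injected over amine-coupled CD3ε homodimer on a CM4 chip at 25 °C, bound amount divided by that of the GLS3000-containing antibody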
# T1 sequence (P07766 23-126 limits assumed): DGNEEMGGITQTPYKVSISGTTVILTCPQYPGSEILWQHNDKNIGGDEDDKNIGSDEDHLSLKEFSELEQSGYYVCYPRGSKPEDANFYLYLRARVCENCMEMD
row,Binder,ratio of amount bound vs unaltered GLS3000
1,B1,0.33
2,B2,1.12
3,B3,1.05
4,B4,1.16
5,B5,0.71
6,B6,0.77
